From US20100092465A1, “TREATMENT OF GRAFT-VERSUS-HOST DISEASE” (priority 2006, published 2010)
Where “and” joins values, the source holds several entries; their conditions need not be identical. Equal entries are not always repeated.

Tests used:
Format in all cases: cell-based
[1] = target: T1, muIL-27 (Mus musculus, UniProt O35228+Q8K3I6); test: Phospho-STAT3 neutralization assay, total human PBMCs, muIL-27; details: ligand muIL-27 at EC90
T1 sequence (O35228 19-228): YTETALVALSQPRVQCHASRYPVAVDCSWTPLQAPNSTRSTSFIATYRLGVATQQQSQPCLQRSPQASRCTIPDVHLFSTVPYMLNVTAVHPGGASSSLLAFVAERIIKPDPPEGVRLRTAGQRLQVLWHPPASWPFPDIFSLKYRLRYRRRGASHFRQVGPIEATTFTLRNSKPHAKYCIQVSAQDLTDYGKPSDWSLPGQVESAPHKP
T1 sequence (Q8K3I6 29-234): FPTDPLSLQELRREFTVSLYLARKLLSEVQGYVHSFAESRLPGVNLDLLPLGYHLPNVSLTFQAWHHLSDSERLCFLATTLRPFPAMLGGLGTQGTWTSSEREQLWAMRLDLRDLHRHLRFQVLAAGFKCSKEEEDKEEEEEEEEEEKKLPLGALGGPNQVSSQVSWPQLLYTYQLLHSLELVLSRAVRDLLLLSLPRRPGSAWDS
Text: (§1) Whole mouse spleens were harvested from C57 B1/6 mice and washed two times with 1×PBS before being plated out at 2×10^5 cells/well in assay media (RPMI 1640 plus 10% fetal bovine serum) in 96-well, round-bottom tissue culture plates. Total human PBMC (peripheral blood mononuclear cells) were thawed from a frozen vial collected from a leukapherisis donation and washed two times with 1×PBS before being plated out at 10^6 cells/well in assay media in 96-well, round-bottom tissue culture plates. […] Following pre-incubation, treatments were added to the plates containing the cells and incubated together at 37° C. for 15 minutes.
(§2) Following incubation, cells were washed with ice-cold wash buffer (BIO-PLEX Cell Lysis Kit, BIO-RAD Laboratories, Hercules, Calif.) and put on ice to stop the reaction according to manufacturer's instructions. […]
(§3) Capture beads (BIO-PLEX Phospho-Stat3 Assay, BIO-RAD Laboratories) were combined with 50 μL of 1:1 diluted lysates and added to a 96-well filter plate according to manufacture's instructions (BIO-PLEX Phosphoprotein Detection Kit, BIO-RAD Laboratories). […] After the final wash, beads were resuspended in 125 μL/well of bead suspension buffer, shaken for 30 seconds, and read on an array reader (BIO-PLEX, BIO-RAD Laboratories) according to the manufacture's instructions. Data were analyzed using analytical softward (BIO-PLEX MANAGER 3.0, BIO-RAD Laboratories). […]

[2] = target: T2, mouse IL-27 (Mus musculus, UniProt O35228+Q8K3I6); test: IL-27 inhibition of IL-2 production neutralized by IL-27RA Fc
T2 sequence (O35228+Q8K3I6 with tags, fused parts or gaps): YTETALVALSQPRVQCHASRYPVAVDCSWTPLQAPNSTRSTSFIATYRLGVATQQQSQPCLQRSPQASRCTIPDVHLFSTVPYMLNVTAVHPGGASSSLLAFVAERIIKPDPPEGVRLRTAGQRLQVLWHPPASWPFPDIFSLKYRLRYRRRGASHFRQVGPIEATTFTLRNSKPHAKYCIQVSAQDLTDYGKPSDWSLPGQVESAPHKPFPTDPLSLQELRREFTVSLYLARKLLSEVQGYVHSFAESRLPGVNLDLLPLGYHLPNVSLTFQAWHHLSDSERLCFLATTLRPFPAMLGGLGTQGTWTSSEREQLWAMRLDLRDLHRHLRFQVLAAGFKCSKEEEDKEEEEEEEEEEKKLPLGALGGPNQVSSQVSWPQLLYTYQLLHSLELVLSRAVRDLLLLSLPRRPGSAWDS
Method: For testing of the soluble receptor, single-chain mouse IL-27 (10 ng/ml) was preincubated for 30 minutes at 37 degrees C. with either IL27RAm(mFc1) (10.0 and 5.0 .micro.g/ml), IL27RA-Fc5, mouse Fc1 protein (10.0 and 5.0 .micro.g/ml), human Fc5 protein (10.0 and 5.0 .micro.g/ml), or no recombinant protein in wells of the anti-CD3 coated plates. 4×10^5 CD4^+ CD62L high cells were added to the wells. Duplicate plates were set up for all experimental conditions. The plates were then cultured at 37 degrees for up to 72 hours. Cell supernatants were collected from one set of plates at 48 hours and from the duplicate set of plates at 72 hours. The supernatants were stored frozen at −80° C.

[3] = target: T1, muIL-27; test: Phospho-STAT3 neutralization assay, mouse spleens, muIL-27; details: ligand muIL-27 at EC90
Text: as §1, §2, §3

IC50 [1]: 2.97 nM
IL-2 concentration ([2]; 48 hr, protein conc. 5 (µg/ml; Fc controls in molar equiv.) + IL-27 10 ng/ml): 5784.11 pg/mL
IL-2 concentration ([2]; 48 hr, protein conc. 10 (µg/ml; Fc controls in molar equiv.) + IL-27 10 ng/ml, listed as hIL-27RA): 5774.94 pg/mL and 5333.6 pg/mL
IL-2 concentration ([2]; 72 hr, protein conc. 5 (µg/ml; Fc controls in molar equiv.) + IL-27 10 ng/ml): 1869.62 pg/mL
IL-2 concentration ([2]; 72 hr, protein conc. 10 (µg/ml; Fc controls in molar equiv.) + IL-27 10 ng/ml, listed as hIL-27RA): 28607.63 pg/mL and 17481.17 pg/mL
inhibition (partial block) of the ability of mouse IL-27 to inhibit IL-2 production ([2]; naïve CD4 T cells): ~50%
IC50 [3]: 0.14 nM
Substance: human IL-27RA-Fc5: human IL27RA extracellular domain (amino acids 1 to 512 of SEQ ID NO:5) fused to Fc5, effector minus human gamma1 Fc; SEQ ID NO:3
